In US20120094899A1 (Takeda / Millennium, published 2012):
Non-standard residues stand in square brackets, D forms with d. No end group written: not given here. *: point of attachment. Acetyl(2-(piperazin-1-yl)) = O=C(CN1CCNCC1)*; PEG 20 kDa = methoxypolyethylene glycol 20k; PEG 30 kDa = methoxypolyethylene glycol 30k; NMeY = CN[C@@H](Cc1ccc(O)cc1)C(=O)O; NMeR = CN[C@@H](CCCNC(=N)N)C(=O)O; NMeL = CN[C@@H](CC(C)C)C(=O)O; NMeA = CN[C@@H](C)C(=O)O; βAla = NCCC(=O)O

T1: Human FM3 (human, UniProt Q9HB89 1-426)
T1 construct: whole, on cells; Assayed as the membrane fraction of FM3-expressing CHO cells (1.2 mg/mL protein); also called NMUR1; FM3 receptor
T1 sequence (looked up): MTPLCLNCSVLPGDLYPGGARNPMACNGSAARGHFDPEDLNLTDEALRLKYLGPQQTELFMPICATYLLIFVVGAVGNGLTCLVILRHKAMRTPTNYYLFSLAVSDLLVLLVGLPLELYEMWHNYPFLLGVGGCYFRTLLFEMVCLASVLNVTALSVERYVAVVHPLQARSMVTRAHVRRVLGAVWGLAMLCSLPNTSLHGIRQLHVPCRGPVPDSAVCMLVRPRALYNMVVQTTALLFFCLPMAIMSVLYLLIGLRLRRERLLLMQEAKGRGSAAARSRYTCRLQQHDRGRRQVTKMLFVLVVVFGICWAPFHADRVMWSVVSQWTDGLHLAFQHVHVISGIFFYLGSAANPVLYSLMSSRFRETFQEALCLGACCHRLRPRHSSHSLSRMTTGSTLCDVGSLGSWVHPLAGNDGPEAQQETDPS

B1: β-Ala0,NMeTyr1,NMeLeu3,NMeArg5-NMU-8 (Compound 16) (peptide)
peptide: [βAla][NMeY]F[NMeL]F[NMeR]PRN-NH2
modifications: N-terminus assumed
SMILES: CC(C)C[C@@H](C(=O)N[C@@H](Cc1ccccc1)C(=O)N(C)[C@@H](CCCNC(=N)N)C(=O)N1CCC[C@H]1C(=O)N[C@@H](CCCNC(=N)N)C(=O)N[C@@H](CC(N)=O)C(N)=O)N(C)C(=O)[C@H](Cc1ccccc1)NC(=O)[C@H](Cc1ccc(O)cc1)N(C)C(=O)CCN
notes: also called β-Ala0,NMeTry1,NMeLeu3,NMEArg5-NMU-8
B2: β-Ala0,NMeArg5-NMU-8 (Compound 13) (peptide)
peptide: [βAla]YFLF[NMeR]PRN-NH2
modifications: N-terminus assumed
SMILES: CC(C)C[C@H](NC(=O)[C@H](Cc1ccccc1)NC(=O)[C@H](Cc1ccc(O)cc1)NC(=O)CCN)C(=O)N[C@@H](Cc1ccccc1)C(=O)N(C)[C@@H](CCCNC(=N)N)C(=O)N1CCC[C@H]1C(=O)N[C@@H](CCCNC(=N)N)C(=O)N[C@@H](CC(N)=O)C(N)=O
B3: PEG20k-NpipAc0,Trp2,Ala6-NMU-8 (Compound T) (peptide)
peptide: {PEG 20 kDa-Acetyl(2-(piperazin-1-yl))}-YWLFRARN-NH2
notes: also called PEG20k-NpipAc-Trp2,Ala6-NMU8
B4: 2-(piperazin-1-yl)acetyl-Arg3-NMU8 (Compound 10) (peptide)
peptide: {Acetyl(2-(piperazin-1-yl))}-YFRFRPRN-NH2
SMILES: N=C(N)NCCC[C@H](NC(=O)[C@H](Cc1ccccc1)NC(=O)[C@H](Cc1ccc(O)cc1)NC(=O)CN1CCNCC1)C(=O)N[C@@H](Cc1ccccc1)C(=O)N[C@@H](CCCNC(=N)N)C(=O)N1CCC[C@H]1C(=O)N[C@@H](CCCNC(=N)N)C(=O)N[C@@H](CC(N)=O)C(N)=O
notes: also called NpipAc-Arg3-NMU-8
B5: Arg3-NMU-8 (Compound 9) (peptide)
peptide: YFRFRPRN-NH2
notes: no linker
B6: PEG30k-NH-β-Ala0,Val3-NMU-8 (Compound D) (peptide)
peptide: {PEG 30 kDa-βAla}-YFVFRPRN-NH2
notes: also called PEG-NH-β-Ala0,Val3-NMU-8
B7: β-Ala0,Arg3-NMU-8 (Compound 3) (peptide)
peptide: [βAla]YFRFRPRN-NH2
modifications: N-terminus assumed
SMILES: N=C(N)NCCC[C@H](NC(=O)[C@H](Cc1ccccc1)NC(=O)[C@H](Cc1ccc(O)cc1)NC(=O)CCN)C(=O)N[C@@H](Cc1ccccc1)C(=O)N[C@@H](CCCNC(=N)N)C(=O)N1CCC[C@H]1C(=O)N[C@@H](CCCNC(=N)N)C(=O)N[C@@H](CC(N)=O)C(N)=O
B8: β-Ala0,Gln5-NMU-8 (Compound 1) (peptide)
peptide: [βAla]YFLFQPRN-NH2
modifications: N-terminus assumed
SMILES: CC(C)C[C@H](NC(=O)[C@H](Cc1ccccc1)NC(=O)[C@H](Cc1ccc(O)cc1)NC(=O)CCN)C(=O)N[C@@H](Cc1ccccc1)C(=O)N[C@@H](CCC(N)=O)C(=O)N1CCC[C@H]1C(=O)N[C@@H](CCCNC(=N)N)C(=O)N[C@@H](CC(N)=O)C(N)=O
B9: β-Ala0,Asp8-NMU-8 (Compound 12) (peptide)
peptide: [βAla]YFLFRPRD-NH2
modifications: N-terminus assumed
SMILES: CC(C)C[C@H](NC(=O)[C@H](Cc1ccccc1)NC(=O)[C@H](Cc1ccc(O)cc1)NC(=O)CCN)C(=O)N[C@@H](Cc1ccccc1)C(=O)N[C@@H](CCCNC(=N)N)C(=O)N1CCC[C@H]1C(=O)N[C@@H](CCCNC(=N)N)C(=O)N[C@@H](CC(=O)O)C(N)=O
B10: PEG30k-NpipAc-Arg3-NMU-8 (Compound J) (peptide)
peptide: {PEG 30 kDa-Acetyl(2-(piperazin-1-yl))}-YFRFRPRN-NH2
B11: PEG30k-NH-β-Ala0,Gln3-NMU-8 (Compound B) (peptide)
peptide: {PEG 30 kDa-βAla}-YFQFRPRN-NH2
notes: also called PEG-NH-β-Ala0,Gln3-NMU-8
B12: PEG30k-NH-β-Ala0,Asp8-NMU-8 (Compound L) (peptide)
peptide: {PEG 30 kDa-βAla}-YFLFRPRD-NH2
B13: β-Ala0,Gln3-NMU-8 (Compound 2) (peptide)
peptide: [βAla]YFQFRPRN-NH2
modifications: N-terminus assumed
SMILES: N=C(N)NCCC[C@H](NC(=O)[C@@H]1CCCN1C(=O)[C@H](CCCNC(=N)N)NC(=O)[C@H](Cc1ccccc1)NC(=O)[C@H](CCC(N)=O)NC(=O)[C@H](Cc1ccccc1)NC(=O)[C@H](Cc1ccc(O)cc1)NC(=O)CCN)C(=O)N[C@@H](CC(N)=O)C(N)=O
B14: PEG20k-NpipAc-Arg3-NMU-8 (Compound I) (peptide)
peptide: {PEG 20 kDa-Acetyl(2-(piperazin-1-yl))}-YFRFRPRN-NH2
B15: PEG30k-NH-β-Ala0,Gln5-NMU-8 (Compound A) (peptide)
peptide: {PEG 30 kDa-βAla}-YFLFQPRN-NH2
notes: also called PEG-NH-β-Ala0,Gln5-NMU-8
B16: PEG30k-NH-β-Ala0,Arg3-NMU-8 (Compound C) (peptide)
peptide: {PEG 30 kDa-βAla}-YFRFRPRN-NH2
notes: also called PEG-NH-β-Ala0,Arg3-NMU-8
B17: PEG30k-NH-β-Ala0,Pro1-NMU-8 (Compound H) (peptide)
peptide: {PEG 30 kDa-βAla}-PFLFRPRN-NH2
notes: also called PEG-NH-β-Ala0,Pro1-NMU-8
B18: PEG30k-NH-β-Ala0,Arg1-NMU-8 (Compound G) (peptide)
peptide: {PEG 30 kDa-βAla}-RFLFRPRN-NH2
notes: also called PEG-NH-β-Ala0,Arg1-NMU-8
B19: β-Ala0,Arg1-NMU-8 (Compound 7) (peptide)
peptide: [βAla]RFLFRPRN-NH2
modifications: N-terminus assumed
SMILES: CC(C)C[C@H](NC(=O)[C@H](Cc1ccccc1)NC(=O)[C@H](CCCNC(=N)N)NC(=O)CCN)C(=O)N[C@@H](Cc1ccccc1)C(=O)N[C@@H](CCCNC(=N)N)C(=O)N1CCC[C@H]1C(=O)N[C@@H](CCCNC(=N)N)C(=O)N[C@@H](CC(N)=O)C(N)=O
B20: PEG30k-NH-β-Ala0,Tyr2-NMU-8 (Compound E) (peptide)
peptide: {PEG 30 kDa-βAla}-YYLFRPRN-NH2
notes: also called PEG-NH-β-Ala0,Tyr2-NMU-8
B21: β-Ala0,Trp2,NMeAla6-NMU-8 (Compound 17) (peptide)
peptide: [βAla]YWLFR[NMeA]RN-NH2
modifications: N-terminus assumed
SMILES: CC(C)C[C@H](NC(=O)[C@H](Cc1c[nH]c2ccccc12)NC(=O)[C@H](Cc1ccc(O)cc1)NC(=O)CCN)C(=O)N[C@@H](Cc1ccccc1)C(=O)N[C@@H](CCCNC(=N)N)C(=O)N(C)[C@@H](C)C(=O)N[C@@H](CCCNC(=N)N)C(=O)N[C@@H](CC(N)=O)C(N)=O
B22: PEG20k-NH-β-Ala0,Glu2,NMeAla6-NMU-8 (Compound R) (peptide)
peptide: {PEG 20 kDa-βAla}-YELFR[NMeA]RN-NH2
B23: PEG20k-NpipAc0,Glu2,Ala6-NMU-8 (Compound S) (peptide)
peptide: {PEG 20 kDa-Acetyl(2-(piperazin-1-yl))}-YELFRARN-NH2
notes: also called PEG20k-NpipAc-Glu2,Ala6-NMU8
B24: NpipAc0,Glu2,NMeAla6-NMU-8 (Compound 21) (peptide)
peptide: {Acetyl(2-(piperazin-1-yl))}-YELFR[NMeA]RN-NH2
SMILES: CC(C)C[C@H](NC(=O)[C@H](CCC(=O)O)NC(=O)[C@H](Cc1ccc(O)cc1)NC(=O)CN1CCNCC1)C(=O)N[C@@H](Cc1ccccc1)C(=O)N[C@@H](CCCNC(=N)N)C(=O)N(C)[C@@H](C)C(=O)N[C@@H](CCCNC(=N)N)C(=O)N[C@@H](CC(N)=O)C(N)=O
notes: also called 2-(piperazin-1-yl)acetyl-[Glu2,NMeAla6]-NMU8
B25: NpipAc0,Glu2,Ala6-NMU-8 (Compound 19) (peptide)
peptide: {Acetyl(2-(piperazin-1-yl))}-YELFRARN-NH2
SMILES: CC(C)C[C@H](NC(=O)[C@H](CCC(=O)O)NC(=O)[C@H](Cc1ccc(O)cc1)NC(=O)CN1CCNCC1)C(=O)N[C@@H](Cc1ccccc1)C(=O)N[C@@H](CCCNC(=N)N)C(=O)N[C@@H](C)C(=O)N[C@@H](CCCNC(=N)N)C(=O)N[C@@H](CC(N)=O)C(N)=O
notes: also called 2-(piperazin-1-yl)acetyl-[Glu2,Ala6]-NMU8
B26: β-Ala0,Glu2,NMeAla6-NMU-8 (Compound 18) (peptide)
peptide: [βAla]YELFR[NMeA]RN-NH2
modifications: N-terminus assumed
SMILES: CC(C)C[C@H](NC(=O)[C@H](CCC(=O)O)NC(=O)[C@H](Cc1ccc(O)cc1)NC(=O)CCN)C(=O)N[C@@H](Cc1ccccc1)C(=O)N[C@@H](CCCNC(=N)N)C(=O)N(C)[C@@H](C)C(=O)N[C@@H](CCCNC(=N)N)C(=O)N[C@@H](CC(N)=O)C(N)=O
B27: PEG20k-NpipAc0,Glu2,NMeAla6-NMU-8 (Compound U) (peptide)
peptide: {PEG 20 kDa-Acetyl(2-(piperazin-1-yl))}-YELFR[NMeA]RN-NH2
notes: also called PEG20k-NpipAc-Glu2,NMeAla6-NMU8

Assays:
human TGR1 = molecular target: T2, human TGR1 (human, UniProt Q9GZQ4 1-415); test: displacement of 125I-NMU8 from human TGR1 CHO membrane fraction; IC50 relative to NMU-8;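 further: competitive binding on TGR1-expressing CHO cell membranes, with compounds tested as DMSO dilution series and incubated for 70 min at 25 °C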
T2 construct: whole, on cells; Assayed as the membrane fraction of TGR1-expressing CHO cells (1.1 mg/mL protein); also called NMUR2; TGR1 receptor
Method: (§1) 15 mL of homogenized buffer (10 mM NaHCO₃ (pH 7.4), 5 mM EDTA, protease inhibitor=0.5 mM PMSF, 10 μg/mL Pepstatin A, 20 μg/mL Leupeptin, and 4 μg/mL E-64) was added to the obtained cell pellets, the cellular membrane was disrupted using a polytron homogenizer (Kinematica GmbH), centrifugation was conducted for 10 minutes at 1,000 g at 4° C., and the supernatant was collected. This process was further repeated twice, and ultracentrifugation was conducted for 60 minutes at 30,000 rpm at 4° C. Thereafter, 8 mL of homogenized buffer was added to the pellets and suspended homogeneously to prepare a membrane fraction. The protein concentration of the FM3-expressing CHO cellular membrane fraction was 1.2 mg/mL, and the protein concentration of the TGR1-expressing CHO cellular membrane fraction was 1.1 mg/mL.
(§2) Specifically, each of the NMU derivatives and PEG conjugates was dissolved in DMSO so as to prepare 2 μL of each dilution series of the NMU derivatives and PEG conjugates. […] The resulting product was thoroughly mixed, and then a reaction was carried out at 25° C. for 70 minutes.

Human FM3 = molecular target: T1, Human FM3; test: displacement of 125I-NMU8 from human FM3 CHO membrane fraction; IC50 relative to NMU-8;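 further: binding reaction run for 70 min at 25 °C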
Method: as §1, §2

T2 sequence (Q9GZQ4 whole entry): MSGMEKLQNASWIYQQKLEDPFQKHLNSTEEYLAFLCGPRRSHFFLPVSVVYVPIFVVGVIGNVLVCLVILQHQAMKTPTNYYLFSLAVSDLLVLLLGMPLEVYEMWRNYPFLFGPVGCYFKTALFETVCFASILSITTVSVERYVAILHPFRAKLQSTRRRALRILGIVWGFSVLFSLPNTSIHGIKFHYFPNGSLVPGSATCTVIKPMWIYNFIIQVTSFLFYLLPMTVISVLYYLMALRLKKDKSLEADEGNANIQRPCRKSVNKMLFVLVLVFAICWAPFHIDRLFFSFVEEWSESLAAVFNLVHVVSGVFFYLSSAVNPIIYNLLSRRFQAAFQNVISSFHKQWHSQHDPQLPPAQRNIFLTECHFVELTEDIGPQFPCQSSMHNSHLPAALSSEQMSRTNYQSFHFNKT

| IC50 ratio (human TGR1) | IC50 ratio (Human FM3) | Binder |
| --- | --- | --- |
| 27 ratio to NMU-8 (=1) |  | B1 |
|  | 0.46 ratio to NMU-8 (=1) | B2 |
| 55 ratio to NMU-8 (=1) |  | B3 |
| 0.66 ratio to NMU-8 (=1) | 0.27 ratio to NMU-8 (=1) | B4 |
| 1.9 ratio to NMU-8 (=1) | 0.62 ratio to NMU-8 (=1) | B5 |
| 2.2 ratio to NMU-8 (=1) | 5.3 ratio to NMU-8 (=1) | B6 |
| 0.38 ratio to NMU-8 (=1) | 0.07 ratio to NMU-8 (=1) | B7 |
| 3.4 ratio to NMU-8 (=1) | 15 ratio to NMU-8 (=1) | B8 |
| 2 ratio to NMU-8 (=1) | 2.4 ratio to NMU-8 (=1) | B9 |
| 2.6 ratio to NMU-8 (=1) | 2.2 ratio to NMU-8 (=1) | B10 |
| 7.3 ratio to NMU-8 (=1) | 1.8 ratio to NMU-8 (=1) | B11 |
| 34 ratio to NMU-8 (=1) | 150 ratio to NMU-8 (=1) | B12 |
| 3.9 ratio to NMU-8 (=1) | 0.31 ratio to NMU-8 (=1) | B13 |
| 2.1 ratio to NMU-8 (=1) | 1.6 ratio to NMU-8 (=1) | B14 |
| 9.6 ratio to NMU-8 (=1) | 160 ratio to NMU-8 (=1) | B15 |
| 2.6 ratio to NMU-8 (=1) | 1.7 ratio to NMU-8 (=1) | B16 |
| 21 ratio to NMU-8 (=1) | 9.4 ratio to NMU-8 (=1) | B17 |
| 8.5 ratio to NMU-8 (=1) | 1.5 ratio to NMU-8 (=1) | B18 |
| 3.7 ratio to NMU-8 (=1) | 0.42 ratio to NMU-8 (=1) | B19 |
| 1.7 ratio to NMU-8 (=1) | 8.1 ratio to NMU-8 (=1) | B20 |
| 1.9 ratio to NMU-8 (=1) | 92 ratio to NMU-8 (=1) | B21 |
| 540 ratio to NMU-8 (=1) |  | B22 |
| 750 ratio to NMU-8 (=1) |  | B23 |
| 5.5 ratio to NMU-8 (=1) | 6500 ratio to NMU-8 (=1) | B24 |
| 25 ratio to NMU-8 (=1) | 24000 ratio to NMU-8 (=1) | B25 |
| 31 ratio to NMU-8 (=1) | 26000 ratio to NMU-8 (=1) | B26 |
| 360 ratio to NMU-8 (=1) |  | B27 |
